Assay: soluble on expression in E. coli; label from the status in PepcDB or PDB records

Sequence | soluble on expression in E. coli
MGGWMSCAPPIYTPHTNSWTESGWDRTSWWRWSAQRWSGWSFKIVRANKALRVMAKTKMPLVLIPPSPNKPYSKLAINQELHLTPHKKTSPATSSSLKPRPGPRGYLNARLSWRCPTLSRKVRVPTIKVPMVRAPSTKPSKTSSSNNPWPLTPRMRG | soluble
MRKSDREAFLSSVLGNEQPPAHLARTVIEEKLRNAIIDGSLPSGTALRQQELATLFGVSRMPVREALRQLEAQSLLRVETHKGAVVAPLITEDAVDAYALRILLESEALRLSIPLLDADDLAAAASYIEQLEVETDFGQIGRLNRMFHLSLYAKTHNKRLMRLVEEGLNEEERFLRFNLSSMGLGKLSQDDHWQLLRLAEQKAVEPCVEALQYHLNRGVQAVTQYLQSQKAGNVKPARTKKNTPA | soluble
GQGVSRSGALDLGALRSANRTVGNPSDMACVESVLGGLSFSCHGSAVIAITGAHTPVTITSASGLQWQASNYQPIELETGDRVSLGSPKAGLRSYLAIRGGFDVTPVLGSLSTDTLAQLGPEALATGDRLGFTAPVNGTSVSLNEAPAFELPTTANIVTLDVVMGPRTDWFTENAIQRLSSQLWRVTPQSNRVGIRLAGDTPLERSNHQELPSEGTSVGAIQVPASGQPVLFLADHPLTGGYPVIASVASHHLDLAGQIPVNAQIRFNPLGAFEEMQPSTEASFSTADAKNNS | not soluble
MGSDKIHHHHHHMNNIYSDIYEKLSTLQWLMKRHQMFCQAESGPFADTSRGQGRILAMLKIQPEIATKELAYLLGIRQQSLNELLNKMEKNGYVERKPSENDKRVMIVHLTEKGKQVQQPKTDYQNIFNCLLPEELLQMSQYLDRIIEAFQLQNGNALEENNMIDWMAQARERMGDEHFEQLMSMRERAFGHMRPPKDIPGAERFSENYNGYVPDRDGFQPRNFRPDIK | not soluble
GMPNFSKNEEVLFSAVNEIFEEKIPFNKIIGLKVRFISPEQVKLSFEMRDELIGNAIRRMLYGGVISSAIDMTAGLAAFMGFQEKMSGKPMEEKLAMIGRLSTMSLHVEYLRPGLGREFVCTGYNVRTGNKVAVIRTELMNDQDELIAVGSVSYILV | soluble
MNVFYTREGVGDVLLVSLKPAADEERTFVRQGDVVRIMSERTGETVGYNIFSASSYYPFSGNGPLEVNEELVGVINDILAKNGFDEPIEADLSPKFVVGYVKEKTKHPNADKLSVCQVDVGGEVLQIVCGAPNVAEGQKVVVAKIGAVMPNGLVIQESELRGVRSSGMICSARELGLPNAPQEKGILVLSDEYEVGQPFVF | not soluble
MGSDKIHHHHHHMNIQQLRYVVAIANNGTFREAASKLFVSQPSLSVSIKDLEAELGFQIFNRTTSGTVLTSQGLVFYEKALEVVKSFDSFEKTFSQADLDQNEFSIASQHYDFLPPLITAFSQQYDGHRVFRIFESTTIQILDEVAQGNSEIGIIYLNVDNQKGLFQRMDKLGLEYVSLIPFTTHIYLSKTHPLANREALYLNDIQGLPAVRFTQERDEYLYYSENFVDTSECPRIYNVSDRATLNGILERTNAFATGSGFLDHRSVNGIKVIPLADHIDNQMIYVKRKDKNLSVAGATFVTILKDYFDKRRKALT | not soluble
MAGWVNPSFDREKLRSVIDSAERVLSERDKAREEAIRLARDVVRYSGWAVTAVHKGSLEEAEGHLARAEEAAGMLRSILEPYPDLMTAGFANNAFSEYVEARLFIDIITGRGLSSPDELRVPIVPYIQGLGDLVGELRRLSLELVRRGEFRKAWSLLDIMEAIYLELRSLDYPEALLPGVRHKADVARRLVDDTKAMLADLESRSQLEYRLKEVLKRLEA | soluble
MYHNSSQKRHWTFSSEEQLARLRADANRKFRCKAVANGKVLPNDPVFLEPHEEMTLCKYYEKRLLEFCSVFKPAMPRSVVGTACMYFKRFYLNNSVMEYHPRIIMLTCAFLACKVDEFNVSSPQFVGNLRESPLGQEKALEQILEYELLLIQQLNFHLIVHNPYRPFEGFLIDLKTRYPILENPEILRKTADDFLNRIALTDAYLLYTPSQIALTAILSSASRAGITMESYLSESLMLKENRTCLSQLLDIMKSMRNLVKKYEPPRSEEVAVLKQKLERCHSAELALNVITKKRKGYEDDDYVSKKSKHEEEEWTDDDLVESL | not soluble

From the DeepSol protein solubility set
